The nanobody polyreactivity screen of Harvey et al. (2022)

Experiment: yeast display, Sf9 membrane polyspecificity reagent, FACS + sequencing; frameworks hold sequencing errors
Method in brief: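 In a synthetic yeast display library (Saccharomyces cerevisiae BJ5465), nanobody expression was induced with galactose for 36–48 hours. FACS gates were set low and high (top ~1%) using anti-HA fluorescence for expression and streptavidin fluorescence for binding of the Sf9 membrane reagent. Each polyreactivity label is drawn from the gate of origin.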

| Sequence | polyreactivity (PSR sort gate) |
| --- | --- |
| QVQLVESGGGLVQAGGSLRLSCAASGSTLGYYAMGWYRQAPGKERELVAAIRYSDGNTYYADSVKGRFTISRDNAKNTVYLQMNSLKPEDTAVYYCAARRGRSFRGVFYPFEYWGQGTQVTVSS | high polyreactivity |
| QVQLVESGGGLVQAGGSLRLSCAASGSTLGYYTMGWYRQAPGKERELVAAISGSGVTTSYADSVKGRFTISRDTAKNTVYLQMNSLKPEDTAVYYCARRYRVGTTGGDYWGQGTQVTVSS | high polyreactivity |
| QVQLVESGGGLVQAGGSLRLSCAASGSTLIANAMGWYRQAPGKERELVAGITYRGGDITTYADSVKGSFTNSSDNANNTVYLQINTLKPEDTAVYYCAAPVVWPTWARGGYWGQGTQVTVSS | low polyreactivity |
| QVQLVESGGGLVQAGGSLRLSCAASGSTLIIYAMGWYRQAPGKERELVATISWSGGNTYYADSVKGRFTISRDNAKYTVYLQMNSLKPEDTAVYYCAARWYYYPLLYDYWGQGTQVTVSS | low polyreactivity |
| QVQLVESGGGLVQAGGSLRLSCAASGSTLIRNVMGWYRQAPGKESELDAAITWSGASTYYADSVKGRFTISRDNAKNTVYLQMNSLKPEDTAVYYCAARALNWSRVARYNYWGQGTQVTVSS | high polyreactivity |
| QVQLVESGGGLVQAGGSLRLSCAASGSTLITNDMGWYRQAPGKERELVATITYGTGSTYYADSVKGRFTISRDNAKNTVYLQMNSLKPEDTAVYYCNARRNYPKDSDGYDYWGQGTQVTVSS | low polyreactivity |
| QVQLVESGGGLVQAGGSLRLSCAASGSTLLIYVMGWYRQAPGKERELVAAISKRSGSTYYADSVKGRFTISRDNAKNTVYLHMNSLKPEDTAVYYCATRPYVRWYDYWGQATQVTVSS | high polyreactivity |
| QVQLVESGGGLVQAGGSLRLSCAASGSTLLTYTMGWYRQAPGKERELVASITTSGGSTYYADSVKGRFTSSRDNAKNTVYLQMNSLKPEDTAVYYWGQGTQVTVSS | low polyreactivity |
| QVQLVESGGGLVQAGGSLRLSCAASGSTLLWNTMGWYRQAPGKERELVAAISITGSTNYADSVKGRFTISRDNEKNTVYLQMNSLKPEDTAVYYCAAPYGLPWWYGSWGQGTQVTVSS | low polyreactivity |
| QVQLVESGGGLVQAGGSLRLSCAASGSTLNRNVMGWSRQAPGKERQMVAVITYGVGSTYYADSVKGRFTISRDNAKNTHYIQMNSLKPEDTAVYYCNKDPLVFDYWGQGTQVTVSS | low polyreactivity |
| QVQLVESGGGLVQAGGSLRLSCAASGSTLNYYAMGWYRQAPGKERELVATIDKSGGSTRYADSVKGRFTISRDNAKNTVYLQMNSLKPEDTAVYYCAVDSPYQHDDYWGQGTQVTVSS | low polyreactivity |
| QVQLVESGGGLVQAGGSLRLSCAASGSTLPTNAMLWYRQAPGKEREFVAAISDNGGSTYYADSVKGRFTISRDNAKNTVYLQMNSLKPEDTAVYYCAADNFGPEFYYWGQGTQVTVSS | low polyreactivity |
| QVQLVESGGGLVQAGGSLRLSCAASGSTLPYYAMGWYRQAPGKERELVAAITSSGGDTYYADSVKGRFTISRDNAKNTVYFQMNSLKPEDTAVYYCAKSYSARSTVRKLFYFAYDYWGQGTQVTVSS | low polyreactivity |
| QVQLVESGGGLVQAGGSLRLSCAASGSTLPYYAMGWYRQAPGKEWELVAAITSSGGDTYYADSVKGRFTISRDNAKNTVYLQMNSLKTEDTAVYYCAKSYSARSTVRKLFYFAYDYWGQGTQVTVSS | low polyreactivity |
| QVQLVESGGGLVQAGGSLRLSCAASGSTLQNNAMGRYRQAPGKERELVAAISVSDGITYYADSVKGRFTISRDNAKNTVYLQMNSLKPEDTAVYSFAADYSSPWQAVQGDDYWGQGTQVTVSS | low polyreactivity |
| QVQLVESGGGLVQAGGSLRLSCAASGSTLQRYAMGWYRQAPGKEREFVAAINWSGSNTYYADSVKGRFTISRDNAKNTVYLQMNSLKPEDTAVYYCATNTWLFGGNYWGQGTQVTVSS | high polyreactivity |
| QVQLVESGGGLVQAGGSLRLSCAASGSTLQSYAMGWYSQAPGKERELVAGIRISGGNTRYADSVKGRFTISRDNAKNTVYLQMNSLKPEDTAVYYCAALTGFYNLRPYGYWGQGTQVTVSS | high polyreactivity |
| QVQLVESGGGLVQAGGSLRLSCAASGSTLRAYAMGWYRQAPGKERELVAAITRRGGSTSYADSVKGRFTISRDNAKNTVYLQMNSLKPEDTAVYYCARVVVTRHPKSIEYDYWGQGTQVTVSS | high polyreactivity |
| QVQLVESGGGLVQAGGSLRLSCAASGSTLRGNAMGWYRPAPGKERELVAAITGRGTRTYYADSVKGRFTISRDNAKNTVYLQMNSLKPEDTAVYYCAAKGRLYPGWEYYYWGQGTQVTVSS | high polyreactivity |
| QVQLVESGGGLVQAGGSLRLSCAASGSTLRPYGMGWYRQATGKERELVPTIRSSSGRTYYADSVKGRFTISRDNAKNTVYLLMNSLKPDDTAVYYCNAKYVWYTQRDAYIYDYWGQGTQVTVSS | high polyreactivity |
| QVQLVESGGGLVQAGGSLRLSCAASGSTLRRNAMGWYRPAPGKERELVAAISGTGGSTYYADSVKGRFTISRDNAKNTVYLQMNSLKPEDTAVYYCAATGWYYDYDYWGQGTQVTVSS | low polyreactivity |
| QVQLVESGGGLVQAGGSLRLSCAASGSTLRRYAMGWSRQAPGKERELVAAISGSGDSTYYADSVKGRFTISRDNAKNTVYLQMNSLKPEDTAVYYCNAVYAFNGYDYWGQGTQVTVSS | low polyreactivity |

| Sequence | polyreactivity (PSR sort gate) |
| --- | --- |
| QVQLVESGGGLVQAGGSLRLSCAASGSTLRRYAMGWYRQAPGKERELVAAISGSGDSTYYADSVKGRFTISRDIAKNTVYLQMNSLKPEDTAVYYCNAVYAFNGYDYWGQGTQVTVSS | low polyreactivity |
| QVQLVESGGGLVQAGGSLRLSCAASGSTLRSYAMGWYRQAPGKERELVAAIDWDGGRTYYADSVKGRFTISRDNAKNTVYLQMNSLKPEDTAVYYCNTSAGWSNGKDEGDFYSGFDYWGQGTQVTVSS | low polyreactivity |
| QVQLVESGGGLVQAGGSLRLSCAASGSTLRYNTMGWYRQAPGTERELVAAIRGSGSSTYYADSVKGRFTISRDNAKNTVYLQMNSLKPEDTAVYYCAARPRWYTYTRQEYDYWGQGTQVTVSS | high polyreactivity |
| QVQLVESGGGLVQAGGSLRLSCAASGSTLSDKSIGWYRQAPGKEMELVASISWSGGTYYADSVKGRFTISRDNAKNTVYLQMNSLKPEDTAVYYCAAYIYYNYSRQYLYDYWGQGTQVTVSS | low polyreactivity |
| QVQLVESGGGLVQAGGSLRLSCAASGSTLSFYAMGWYRQAPGKERELVAAISYSTGTTYYADSVKGRFTISRDNAKNTVYLQMNSLKPEDTAVYYCAVYWQHNSTRYYYWGQGTQVTVSS | high polyreactivity |
| QVQLVESGGGLVQAGGSLRLSCAASGSTLSHYAMGWYRQAPGKERELVAAINSNGGSTYYADSVKGRFTISRDNAKNTVYLQMNSLKPEDTAVYYCNTYFRYFSFYGRPFDYWGQGTQVTVSS | high polyreactivity |
| QVQLVESGGGLVQAGGSLRLSCAASGSTLSINAMGGYRQAAGKERELVAGITYSGGSEYYADSVKGRFSISRDNAKNNVYLQMNSMKPEDTAVYYCNKASGVYYGHLDYWRQGTQVTVSS | low polyreactivity |
| QVQLVESGGGLVQAGGSLRLSCAASGSTLSRYTMGWSRQAPGKERELVAAIRSSGGSTYYADSVKGRFTISRDNAKNTVYLQMNSLKPEDTAVYYCARTQQRTTEREHWIRYYYWGQGTQVTVSS | low polyreactivity |
| QVQLVESGGGLVQAGGSLRLSCAASGSTLSSYDMGWYRQAPGKERELVASISSGGSTYYADSVKGRFTISRDNAKNTVYLQMNSVKPEDTAVYYCLYWSYDWGQGTQVTVSS | low polyreactivity |
| QVQLVESGGGLVQAGGSLRLSCAASGSTLSVYVMGWYSQAPGKERELVAAITRGGSTNYADSVKGRFTISRDNAKNTVYLQMISLKPEDTAVYYCAARAFVYYHHGEGSRSGRYYYWGQGTQVTVSS | high polyreactivity |
| QVQLVESGGGLVQAGGSLRLSCAASGSTLTEYAMGWYRQAPGKEREFVAAISRSAGSTYYADSVKGRFTISRDNAKNTVYLQMNSLKPDDTAVYYCAVAVRVGFDYFSGQADIYYYWGQGTQVTVSS | low polyreactivity |
| QVQLVESGGGLVQAGGSLRLSCAASGSTLTEYAMGWYRQAPGKEREFVAAISRSAGSTYYADSVKGRFTISRDNAKNTVYLQMNSLKPEETAVYYCAVAVRVGFDYFSGQADIYYYWGQGTQVTVSS | low polyreactivity |
| QVQLVESGGGLVQAGGSLRLSCAASGSTLTRNAMGLYRQAPGTERELVATITATGGSTYYADSVKGRFTISRDNAKYTVYLQMNSLKTEDTAVYYCAAAYPTYRHYYWGQGTQVTVSS | low polyreactivity |
| QVQLVESGGGLVQAGGSLRLSCAASGSTLTYNAMGWYRQAPGKERELVAVISARGGRTYYADSVKGRFTISRDNAKNTVYLQMNSLKPEDTAVYYCAAVFYYSYYRITSGDYWGQGTQVTVSS | high polyreactivity |
| QVQLVESGGGLVQAGGSLRLSCAASGSTLVGNAMGWYRQAPGKERELVATIDLSDDITYYADSVKGRFTISRDKAKNTVYLQMNSLKPEDTAVYYCAAEYYLYSTYTVSYWKYDYWGQGTQVTVSS | high polyreactivity |
| QVQLVESGGGLVQAGGSLRLSCAASGSTLVIYAMGWYRQAPGKERELVAAINFSDGSTSYADSVKGRFSISRDNAKNTVYLQMNRLKPEDTAVYYLGQGTQVTVSS | low polyreactivity |
| QVQLVESGGGLVQAGGSLRLSCAASGSTLVIYAMGWYRQAPGKERELVAAINFSDGSTSYADSVKGRFTISRDNAKNTVYLQMNSLKPEDTAVFYWGQGTQVTVSS | low polyreactivity |
| QVQLVESGGGLVQAGGSLRLSCAASGSTLVIYAMGWYRQAPGKERELVAAINFSDGSTSYADSVKGRFTISRDNSKTTVYFQMNSLKPEDTAVYYWGQGTQVTVSS | low polyreactivity |
| QVQLVESGGGLVQAGGSLRLSCAASGSTLVRNAMGWSRPAPGKERDLVAAITSSGGRTYYADSVKGRFTISRDTAKNTVYLQMNSLKPEDTAVYYCNRVSRYYLYDYWGQGTQVTVSS | high polyreactivity |
| QVQLVESGGGLVQAGGSLRLSCAASGSTLVTYAMGWSRQAPGTERELVAAISYSGGSTYADSVKGRFTISRDNAKNTVYLQMNSLKPEDTAVYYCNSDTSVDVRFDYWGQGTQVTVSS | low polyreactivity |
| QVQLVESGGGLVQAGGSLRLSCAASGSTLVYNDMGWYRQAPGKERELGATITGTDSTYYADSVKGRFTISRDNAKNTVYLQMNSLKPEDTADCAADRAASRPDYDYWGQGTQVTVSS | low polyreactivity |
